Test [1] addresses T1, CD82 polypeptide (human) (human).
T1 sequence (P27701 whole entry, looked up): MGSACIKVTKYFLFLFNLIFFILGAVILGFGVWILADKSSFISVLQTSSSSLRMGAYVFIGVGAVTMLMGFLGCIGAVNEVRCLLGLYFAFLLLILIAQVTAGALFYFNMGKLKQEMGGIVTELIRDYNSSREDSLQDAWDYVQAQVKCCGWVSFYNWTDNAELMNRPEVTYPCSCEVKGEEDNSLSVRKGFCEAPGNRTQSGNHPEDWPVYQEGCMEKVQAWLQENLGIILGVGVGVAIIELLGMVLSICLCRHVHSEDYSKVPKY
Description: IP with anti CD82 antibodies, human myotubes, mass spectrometry.

Test [2] has as its target CD82 (mouse) (mouse) (UniProt P40237). Nature of the test: IP with anti CD82 antibodies, mouse muscle tissue, mass spectrometry.

Annexin A2 (human), sequence (P07355 2-339 limits assumed): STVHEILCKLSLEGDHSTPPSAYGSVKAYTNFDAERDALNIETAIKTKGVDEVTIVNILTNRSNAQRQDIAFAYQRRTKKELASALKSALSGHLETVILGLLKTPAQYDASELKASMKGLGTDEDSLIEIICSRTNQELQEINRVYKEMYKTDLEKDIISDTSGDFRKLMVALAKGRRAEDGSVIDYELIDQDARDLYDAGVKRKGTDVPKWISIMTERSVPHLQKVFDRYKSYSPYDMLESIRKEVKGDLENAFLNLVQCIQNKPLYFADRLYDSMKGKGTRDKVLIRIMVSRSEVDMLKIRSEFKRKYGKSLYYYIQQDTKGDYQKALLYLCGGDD

With “Annexin A2 (human) (from UniProt P07355)”, in test [1], the Total amounted to 5 and the Unique is 5.
With Dysferlin (from UniProt O75923), in test [1], the Total was 32 and the Unique came to 31.
For Filamin A (from UniProt P21333), in that order: 30 and 30.
In the case of Filamin B (from UniProt O75369), in test [1], the Total was determined as 3 and the Unique was 3.
Consider Filamin C (from UniProt Q14315), for which, in test [1], the Total was determined as 24 and the Unique is 24.
In test [2], “G3P_MOUSE (from UniProt P16858) (enzyme)” returned a Total of 2 and a Unique of 2.
In test [2], KV2A7_MOUSE showed a Total of 2 and a Unique of 2.
With Myoferlin (from UniProt Q9NZM1), in test [1], the Total was 32 and the Unique was 31.
Turning to TBA1A_MOUSE (from UniProt P68369), in test [2], the Total amounted to 3 and the Unique worked out at 3.
In test [1], “nonmuscle myosin IIA (from UniProt P35579)” had a Total of 77 and a Unique of 64.
In test [1], profilin (from UniProt P07737) showed a Total of 3 and a Unique of 3.
